# Experiment: soluble on expression in E. coli; label from the status in PepcDB or PDB records
row,Sequence,soluble on expression in E. coli
1,MDNRVREACQYISDHLADSNFDIASVAQHVCLSPSRLSHLFRQQLGISVLSWREDQRISQAKLLLSTTRMPIATVGRNVGFDDQLYFSRVFKKCTGASPSEFRAGCE,soluble
2,MGGEQRETNLSIRGKAYIVGAFEHPLRYAPAHSVAQLHAECALGALADAGLTLADVDGYFCAGDAGASPATLVDHMNLRLRHVDGTEIGGGSYLALIGHAAQAIASGKCRVALITLAGKPRSAGQATGTEARQPGPDRPASAWEAPYRWTVAGIYGNFARRHMHEYGTTSEQLAWVKVAASHHAQHNEHALLRKVYSVEDVLASPMIADPLHRLDCCVITDGGGALVLAAPEVARSLARPRIRVLGCGETIRTNNGGHHADMLHTGAQRSGPAAFAEAGVTPADIKYASVYDNFTIMVIMQLEDLGFCEKGAGGRFVADGNLISGTGRLPWNTDGGGLCNNHPANRGGITKAIEAVRQLRGEAHPSVQVPNCDLALAAGPGLVFGVGHSHATVILERE,not soluble
3,MLRRTLHCCTAVRHTSVPSFMQHPVEMAFYFPRFHPDTHVNAAGIPELIDAVGLMTRHSRSSRAESTASASTSAAESAMSRALPPTRWTTTVSATAQPTTDASVVEAQKDNAKSLLLLERGIDILNSVGGVRNPTVANLLRPLYAARFEMLNGSEHLPRSEYAKRMHVHKAILQQAAPLLYYDAWDKSDVHQLDTSCVLVGHFMKAFCALHPRPFHPVAAPATSGGAGSSQASSTTTTASSSSSSNSNSNVTSSSSAQSTPKGAFNPAEWKMAVGDDGEGAYLTLSIVQDRVEELLRLATAAYDKHGSTHPELRWLRPKLLVLKGLLTIPLTGHLLHAQRCIEEAAHYVDALTKRTNLLLDGLKERTHEPELGLYMLLQAEIAARVFDWDVAPGQVDGDVVNMFTDAAGYYADPPNTTLDGDAIMSERKLAEQRFEVEAYACCLRSYAAFLLGASRPEATSTRDSPVFLAKQLFSLNPLLTVATSSSLIFSDVRNVSELPLDMCRRRTGEALDRALKLNRMLYPDFRQNAPAAATLMTMACMYADTRDYLYATGLFESANKAVTYNFGDTSLEHVFLQKLRYEFLAGVGSEQEAKTASHEVVHLLKRIDALPC,soluble
4,MKILLFICGEGLGHTGRCLALGKEFLAAGHEVNFGAYGYSKGLVQKTGYSAYEIPSEIKLAGEAGTFDIRKSIKETLNNLSPSGFRKILRLIEKLDPDVVLSDGYYTGILAAQKRKVPVYFIGHQFNMEEFFWKKGLFAGIAGIFVKRFYNYVFSSVDGIIVPDYPLPYSVNRKNFTISRAVNDNIFFSGPLIRCRYQEAGEKAFKRPNVLSTIGAFGYRAAVFRNVLEAAKLDPSIYYTFISGPEIDPEQFSKVPENVEFTGFTENPFPYYKGSDLVITAGGHGTIMESLAFGLPILSFPDEKHAEQENNASVLEEAGYGKRMSYLTPPEVILACIREIFEDENYSKKTRRLMELAEVLDGPAAVRKFLEEKHRGLEHHHHHH,not soluble
5,MGSDKIHHHHHHVNETSHSLEYEAFIEEARHVVEARFGHTGTTGEVPRLLLRHGTVRMARDMARGIRPCQVKMPDVSGLQYGDFAPLDPLALLRDEVKLPSLPAVVAELRDVLSSPNSSAADVARVISRDAGLSAFLLRMVNSAFYSFPSRIDTVSRAVALVGRQQLSTLALGVMVIGAMRDLPVAHLDLSLFWQHSIACAVVAGQLAEAAGMEEPERFFVAGLLHDIGRLAVFSLLPDRAAAILSMCSDYGMPAQDAELRVLGFDHATLGGMLLRKWNFPMSLVFSTLHHHVPERSVRHVEPAVVHVADVVVKGLGIGVSGMHQLPGFKEDAWQRLGVSVAVLEQLIDGLEERLRDTSSLLLE,not soluble
6,GIIEAHCHVGIQEEKRGFEGNDCNEMTNPVTPYLRALDGINPMDSAFYTALTAGITGIMVGPGSANVVGGQWMFLKTYGRAIDKMVVLQPSAMKIAFGENPKANYDKKNMMPSTRIAIAAMLREELFEAQQYYEKRKNAEKSGDSFNKEFRKECWVPVFDKKIPLKAHVHRADDILTAIRIAKEFNLNLTLDHCTEGHLVAKEIKESGFPAIVGPTLTSRNKIETQYADFKTAGILHNEGVKVAITTDHPVTRIQDLLICAGLAAKEGLGIEEGLKAITINPAEICNVANRVGSIEVNKDADIAIFDGNPMETFTKTMYTIINGEIVY,not soluble
7,MGSDKIHHHHHHMLLPLSSQNVIQHLQAADLCSSEDGKSDIVELPISKKNYNLVVNLADNRKLLVKQERGVENDGILHELFNEWLFHQLLQKFPILGNISAIAPLVVHFDEENSILVRSYLSEYLDLAEFYQNPNVFPKEIAAAIGTTLAALHRTTFQGKEYRDFMATAPQGQFRYHFYNPAQGISSLNPEIFGRIPTEALKFHVLYQCYESLEAAIADLAYEWDACCLTHNDLKLNNILIHSRWNQLDNCLVQLIDWEACTWGDPAFDLGTILASYLEIWLESLVVDPTLELAESLELVMIPLEEIQPSLVALLQAYLQAFPMILEYHPNFLVRVIKFIGLALIHQIQDKINNCKLFDNSHLYMLQVAKNLLTMPEQSILSIFGISEAEILSPVAKVPQVSHPEKEKQLVPLYYEKTRLRGC,not soluble
8,MPKINTSSSGWLADISLFYEKRGTNTKLVHREQVGPLMVQRPFYPETGIAHTYLLHPPGGVVGGDQLNINIHVSPQAHSLLTTPGATKFYRSSGATSSQTQNLTVESDGFLEWLPQENIFFPDSQAQLKTQVELHKNAHFIGWEMNCFGRPVLDEIFENGFVTGRTNIKVDDQLLLSESMYIDSIDEIKHAAGMRHYPMLGNLYIYPASEALEEKLRTLIDENFHEQPELFGSSNPICGITEIDGLLVIRYLGHQTEPMMACFSTLWQHTRQHWLGKLPEVPRIWATLEHHHHHH,not soluble
9,MRLLILGGTGDAAELSAKVATIPGIEAIASLAGRTREPSLPSGNVRVGGFGGAAGLADYLRQMQVDVLIDATHPFAAQISENAALAADEVEIPRLMLIRPPWVKVAGDRWIEVDTTSAAAAILKNQAKRVFLTVGRQELSAFAHLHDIWFLMRMIDPPAADALVPPGVILCDRGPFTLPQERDILIQHNIDTLVSKNSGGDATYAKIIAARELGVQVVMVNRPVVPACEQVTDADAAVAWLLEK,not soluble
10,MKQLNGGNVYRPTGKEKNLQAILNIHRHVIQNISPVTITAGKTLDIKIDNQSHILLITKGAIKVCRRIDSIVMGCGVSPMILGLVDAYADLYQLEENSDVFFIAETTCEYYPVPVKDFVEIADEKHLWRDISNILMYRIAFMTNRDRNLIGQDAYSQIKALLLELWSYPESSRFEINAQNFIQQRTGLSRSRIMQVLSELKAGDYIKILHGRLLELRNLPVSF,not soluble
11,MGSDKIHHHHHHMNAVTIFVHGFNGNADSTDHLIHGAQKNGWAQKMLVVKIKNDGAMDFDGELDQQVANPMVQVLFENNRAPERRQVSWMHQLLIKLRQSFGVEQYNGVGHSLGSNVLVNLAIKFGKDSRLPALKKLVTIAGPFNGLHGFLSQDTVKDVMTKSWEPNKRTHHFKKLVRNRHLFPKGAEVLNVIGSVDGILNNDVYVAVDSARAVGYLLDGVAAKVSELMVIGPDGYHCELNRSQNVSREINQFLWDEKYIAQDFKLINSYRADKVYQLAPEELNWAN,not soluble
12,MFNLRPAATLVALAAALSSLPALAEEARYNQISLRAEVNQEVQRDLMLVTLYTEAQDSDPARLAAQITETLNKALGQARQVKDVKIRQGSRNSYPVYDDKGQKITGWRERAELRLESADFAVLSKLTGELLTDLKMGGMDFSISPSTRKTSEDALLKDAVTAFKARAQLVTEALGGKGYKLVNLNLNTSGYPQPYLRAPVMMMAKSSRDESAPTPDVEAGTSQVSVAADGVIEVAIPLEHHHHHH,soluble
13,MLPTTSSLQIGELAAGQALTLPIYHFKPSGKHSGPKVYIQANVHGAEVQGNAVIYQLMKQLERCDILGEITLVPLANPLGINQKSGEFTLGRFDPITGVNWNREYLNHAIDLPTWYKEHAELSDSELIQAYRSTLVEACQRRLRNDWGVTTGHRLAVNLQAMAHEADIVLDLHTGPKSCKHLYCPEYDIASAQFFAIPYTLVIPNSFGGAMDEAAFCPWWQLSEVAKVMGRDLEIAVSAFTLELASQERICLEDALVDAKGILAYLSHRGVIAEQVEPAKMRRFGCYLKDYKKYHAPMAGLVEYVAPVGEPLAAGETLVNLLRLDLYGSEQELTALSLPQDCVPILHFASASVHQGTELYKVMTNLFELPH,soluble
14,MAHHHHHHMSSVINYEKFEKIDISSSDDDNKKKLNPHLTKLDNKDKVVIGPNGLTILKNNNDEKIKHDKYNNTSKNVEEIKDKNDEYKTIYNETNNEILNNKNDNIHVQNMNNYVADDKKYKDMFINGAVVPYEYIWNQSIHYINAFICLPLNCKAKNLIVDIKEDKLIVKIKNYKCGIIYNNNNNNNKTNQHNTQSNSFHDNVEILVDKKFPFKINTDEDTQIWEIKNMQINWYTLFNLSNEINNQNVHYLFEDYNMLDKQETFLYISVKKINEIENAYIWWSTLFKNEHPIKIENLPSRSSTNKAKKTMNSFKTAWDEAHEIFKKNISMKQLPFRIDSS,soluble
15,MGSDKIHHHHHHMRVLVINSGSSSIKYQLIEMEGEKVLCKGIAERIGIEGSRLVHRVGDEKHVIERELPDHEEALKLILNTLVDEKLGVIKDLKEIDAVGHRVVHGGERFKESVLVDEEVLKAIEEVSPLAPLHNPANLMGIKAAMKLLPGVPNVAVFDTAFHQTIPQKAYLYAIPYEYYEKYKIRRYGFHGTSHRYVSKRAAEILGKKLEELKIITCHIGNGASVAAVKYGKCVDTSMGFTPLEGLVMGTRSGDLDPAIPFFIMEKEGISPQEMYDILNKKSGVYGLSKGFSSDMRDIEEAALKGDEWCKLVLEIYDYRIAKYIGAYAAAMNGVDAIVFTAGVGENSPITREDVCSYLEFLGVKLDKQKNEETIRGKEGIISTPDSRVKVLVVPTNEELMIARDTKEIVEKIGR,not soluble
16,MTTVRIPAGWPATEEEARAVQDELRGRVILDEPGPPPGTGRVTGVDVAYDDERDVVVAAAVVLDAATLDVVAEATAVGEVSFPYVPGLLAFREIPTVLAALDALPCPPGLIVCDGYGVAHPRRFGLASHLGVLTGLPTIGVAKNPFTFSYEDPGAPRGSAAPLLAGADEVGRALRTQSGVKPVFVSVGHRVDLDHACAHTLALTPKYRIPETTRRADSLCRRALKEATALEHHHHHH,soluble
17,MGSDKIHHHHHHMSPSIYPKSNYPDAAILSRLAQQIKGWGKALGFARVGICDTDLTSEEIKLQTWLDKGYHGEMAYMASHGMMRARPQELHPGTVRVISVRMDYLPPEAGFATNLTDPNLGYISRYAGGRDYHKLIRARLKKLGDHISAELIALGFDAADFRPFVDSAPVLERPLAEKAGIGWTGKHSLILNHDSGSWFFLGELFINLPLPVDIPIQEACNTCVACMTSCPTGAIVEPYVVDGRRCISYLTIELQGAIPEEFRPLMGNRIYGCDDCQLVCPINRQAPLTTEIDFHIRPQLKQPDLLSLFAWSEAEFLKQTEGSAIRRIGHKRWLRNIAVALGNAPANPIILEALTNRQESADVDEMVLEHIQWAIDAQQSRLAASNTLVQQKSRRQTARMVRIIEKGLPRDA,not soluble
18,FVNKDQIAKDVKQFYDQALQQAVVDDDANNAKAVVKTFHETLDCCGSSTLTALTTSVLKNNLCPSGSNIISNLFKEDCHQKIDDLFSGKH,soluble
19,MSIIFNQRIEIIRAGEKRSVYSSDVMEDWDNPVVLPVEVPVSIQPVSSTESDATANRSYVTSRFRLFSPPGIDIPQLKAKDRVRIGLLVLDVVGDPARWPHPLKPATVHHVEADLEVHRG,not soluble

# From the DeepSol protein solubility set
